Like-named read-outs stand apart in the source and are kept apart here.
Tests used:
[1] = target: human ether-a-go-go-related gene potassium channel (hERG), wild type (human) (UniProt Q12809)
hERG-I583A (human) [2] = target: hERG-I583A (human) (UniProt Q12809)
hERG-R582A (human) [3] = target: hERG-R582A (human) (UniProt Q12809)
hERG-K608A (human) = hERG-K608A (human) (UniProt Q12809)
hERG-N588A (human) = hERG-N588A (human) (UniProt Q12809)
hERG-T613A (human) = hERG-T613A (human) (UniProt Q12809)
hERG-Y597A (human) = hERG-Y597A (human) (UniProt Q12809)
hERG-P596A (human) = hERG-P596A (human) (UniProt Q12809)
hERG-Q592A (human) = hERG-Q592A (human) (UniProt Q12809)
hERG-I583A (human) [4] = target: hERG-I583A (human) (UniProt Q12809); remark: listed apart in the source
hERG-S631A (human) = hERG-S631A (human) (UniProt Q12809)
hERG-N598A (human) = hERG-N598A (human) (UniProt Q12809)
hERG-H587A (human) = hERG-H587A (human) (UniProt Q12809)
hERG-K610A (human) = hERG-K610A (human) (UniProt Q12809)
[5] = target: human ether-a-go-go-related gene potassium channel (hERG), wild type (human) (UniProt Q12809); remark: listed apart in the source
hERG-D591A (human) = hERG-D591A (human) (UniProt Q12809)
hERG-L586A (human) = hERG-L586A (human) (UniProt Q12809)
hERG-R582A (human) [6] = target: hERG-R582A (human) (UniProt Q12809); remark: listed apart in the source
hERG-S600A (human) = hERG-S600A (human) (UniProt Q12809)
hERG-K595A (human) = hERG-K595A (human) (UniProt Q12809)

Work on scorpion toxin BmKKx2 (peptide) yielded an IC50 (half-maximum inhibition concentration) of hERG channel currents, whole-cell patch clamp on transfected HEK293 cells [1] of 26.7 nM, a percent of mutant hERG channel currents inhibited by 100 nM BmKKx2, whole-cell patch clamp (hERG-I583A (human) [2]) of 70% and a percent of mutant hERG channel currents inhibited by 100 nM BmKKx2, whole-cell patch clamp (hERG-R582A (human) [3]) of 70%. For the same substance, the IC50 (half-maximum inhibition concentration) of mutant hERG channel currents, whole-cell patch clamp on transfected HEK293 cells (hERG-K608A (human)) was 116 nM, the IC50 (half-maximum inhibition concentration) of mutant hERG channel currents, whole-cell patch clamp on transfected HEK293 cells (hERG-N588A (human)) was 14.5 nM and the IC50 (half-maximum inhibition concentration) of mutant hERG channel currents, whole-cell patch clamp on transfected HEK293 cells (hERG-T613A (human)) was 42.6 nM. The IC50 (half-maximum inhibition concentration) of mutant hERG channel currents, whole-cell patch clamp on transfected HEK293 cells (hERG-Y597A (human)) was 118 nM, the IC50 (half-maximum inhibition concentration) of mutant hERG channel currents, whole-cell patch clamp on transfected HEK293 cells (hERG-P596A (human)) was 60.8 nM and the IC50 (half-maximum inhibition concentration) of mutant hERG channel currents, whole-cell patch clamp on transfected HEK293 cells (hERG-Q592A (human)) was 89.5 nM. For the same substance, the IC50 (half-maximum inhibition concentration) of mutant hERG channel currents, whole-cell patch clamp on transfected HEK293 cells (hERG-I583A (human) [4]) was 87.5 nM, the IC50 (half-maximum inhibition concentration) of mutant hERG channel currents, whole-cell patch clamp on transfected HEK293 cells (hERG-S631A (human)) was 698 nM and the IC50 (half-maximum inhibition concentration) of mutant hERG channel currents, whole-cell patch clamp on transfected HEK293 cells (hERG-N598A (human)) was 15.2 nM. It also gave an IC50 (half-maximum inhibition concentration) of mutant hERG channel currents, whole-cell patch clamp on transfected HEK293 cells (hERG-H587A (human)) of 59.7 nM, an IC50 (half-maximum inhibition concentration) of mutant hERG channel currents, whole-cell patch clamp on transfected HEK293 cells (hERG-K610A (human)) of 6.7 nM and an IC50 (half-maximum inhibition concentration) of hERG channel currents, whole-cell patch clamp on transfected HEK293 cells [5] of 6.7 nM. For the same substance, the IC50 (half-maximum inhibition concentration) of mutant hERG channel currents, whole-cell patch clamp on transfected HEK293 cells (hERG-D591A (human)) was 19.6 nM, the IC50 (half-maximum inhibition concentration) of mutant hERG channel currents, whole-cell patch clamp on transfected HEK293 cells (hERG-L586A (human)) was 24.3 nM and the IC50 (half-maximum inhibition concentration) of mutant hERG channel currents, whole-cell patch clamp on transfected HEK293 cells (hERG-R582A (human) [6]) was 76.5 nM. The IC50 (half-maximum inhibition concentration) of mutant hERG channel currents, whole-cell patch clamp on transfected HEK293 cells (hERG-S600A (human)) was 12.1 nM and the IC50 (half-maximum inhibition concentration) of mutant hERG channel currents, whole-cell patch clamp on transfected HEK293 cells (hERG-K595A (human)) was 65.2 nM.

Reference: paper PMC4108063
